# In article PMC5575267, “A novel function of cIAP1 as a mediator of CHIP-driven eIF4E regulation” (Scientific Reports, 2017):
# Residue numbers refer to the chain shown, from its start. Names and notes keep the numbering of the source.
# B1: GST-CHIP WT (natural protein, UniProt Q9UNE7 1-303, looked up)
# chain: MKGKEEKEGGARLGAGGGSPEKSPSAQELKEQGNRLFVGRKYPEAAACYGRAITRNPLVAVYYTNRALCYLKMQQHEQALADCRRALELDGQSVKAHFFLGQCQLEMESYDEAIANLQRAYSLAKEQRLNFGDDIPSALRIAKKKRWNSIEERRIHQESELHSYLSRLIAAERERELEECQRNHEGDEDDSHVRAQQACIEAKHDKYMADMDELFSQVDEKRKKRDIPDYLCGKISFELMREPCITPSGITYDRKDIEEHLQRVGHFDPVTRSPLTQEQLIPNLAMKEVIDAFISENGWVEDY
# notes: source: bacteria, purified (cloned into pGEX4T-1)
# B2: CHIP WT-6His (natural protein, UniProt Q9UNE7 1-303, looked up)
# chain: B1 chain
# notes: also called CHIP-6His (WT); source: bacteria, purified (cloned into pET 23a)
# B3: CHIP K30A-6His (natural protein, UniProt Q9UNE7 1-303, looked up)
# chain: B1 chain with K30A
# notes: also called CHIP-6His (K30A); source: bacteria, purified (cloned into pET 23a)
# Assays:
# [1] = target: T1, GST-cIAP1 (human, UniProt Q13490 1-618); test: pull-down; His-tag pull-down: eIF4E-6His beads pre-incubated with GST-cIAP1 (also in increasing amounts), then incubated with GST-CHIP or GST alone; WB with anti-GST antibody; conditions: both partners purified
# T1 construct: also called GST-cIAP1 beads; source: bacteria, purified (cloned into pGEX4T-1)
# [2] = target: T1, GST-cIAP1; test: pull-down; GST pull-down: GST or GST fusion protein on glutathione beads incubated with 6His-tagged protein in 100 mM Tris pH 8.0, 100 mM NaCl, 2 mM EDTA, 5% glycerol, 2 h at 4 °C; WB with anti-His antibody; conditions: both partners purified
# T1 sequence (Q13490 whole entry): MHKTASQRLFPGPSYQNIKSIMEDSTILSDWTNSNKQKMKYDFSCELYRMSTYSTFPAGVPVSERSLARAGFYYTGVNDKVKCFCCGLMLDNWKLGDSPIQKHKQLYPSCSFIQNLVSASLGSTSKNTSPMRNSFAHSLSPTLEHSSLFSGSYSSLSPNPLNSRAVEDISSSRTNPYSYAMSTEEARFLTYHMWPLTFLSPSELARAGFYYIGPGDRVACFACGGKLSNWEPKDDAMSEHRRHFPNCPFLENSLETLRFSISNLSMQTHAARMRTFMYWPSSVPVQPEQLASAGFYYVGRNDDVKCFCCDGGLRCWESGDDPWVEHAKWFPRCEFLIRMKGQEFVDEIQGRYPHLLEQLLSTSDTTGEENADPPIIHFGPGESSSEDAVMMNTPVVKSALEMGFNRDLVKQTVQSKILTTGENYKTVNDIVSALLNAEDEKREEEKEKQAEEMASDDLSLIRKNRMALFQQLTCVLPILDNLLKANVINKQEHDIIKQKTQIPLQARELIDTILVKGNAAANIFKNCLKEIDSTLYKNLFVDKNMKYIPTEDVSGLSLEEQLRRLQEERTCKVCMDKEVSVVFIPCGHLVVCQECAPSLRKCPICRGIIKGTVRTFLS
Binder,binding result [1],binding result [2]
B1,binds,
B2,,binds
B3,,binds
